Experimental data published in PMC10925246 (bioRxiv, 2024).
Ends that are not written are not given here.

T1: recombinant PotH (E. coli) with C-terminal 10-His tag (E. coli, UniProt P31135 1-317)
T1 sequence (looked up): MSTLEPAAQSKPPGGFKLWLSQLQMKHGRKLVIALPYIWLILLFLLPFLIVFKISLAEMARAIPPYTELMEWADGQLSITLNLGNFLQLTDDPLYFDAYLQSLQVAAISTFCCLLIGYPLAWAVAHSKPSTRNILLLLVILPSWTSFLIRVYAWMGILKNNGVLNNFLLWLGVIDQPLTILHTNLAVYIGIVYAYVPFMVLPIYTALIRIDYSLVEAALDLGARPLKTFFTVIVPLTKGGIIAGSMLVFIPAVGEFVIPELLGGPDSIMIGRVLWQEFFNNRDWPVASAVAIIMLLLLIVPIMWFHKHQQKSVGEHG

B1: Cys(N)-N-104 immobilized on SulfoLink Coupling resin (peptide)
peptide: AQKLLKKFSLLKPWA
B2: PotH outer loop 2 synthetic peptide (peptide)
peptide: Ac-WMGILKNNGVLNNFLLWLGVIDQPLTILHTN-NH2
B3: N-104 L108S/L109S/F112S/L114S/L115S/W118S (peptide, UniProt Q9GZZ8 124-138, looked up)
peptide: AQKSSKKSSSSKPSA
B4: lacritin peptide N-104 (peptide)
peptide: Ac-AQKLLKKFSLLKPWA
B5: N-104:K107S (peptide, UniProt Q9GZZ8 124-138, looked up)
peptide: AQSLLKKFSLLKPWA
B6: N-104:L108S (peptide, UniProt Q9GZZ8 124-138, looked up)
peptide: AQKSLKKFSLLKPWA
B7: N-104:L115S (peptide, UniProt Q9GZZ8 124-138, looked up)
peptide: AQKLLKKFSLSKPWA
B8: N-104:W118S (peptide, UniProt Q9GZZ8 124-138, looked up)
peptide: AQKLLKKFSLLKPSA
B9: N-104:F112S (peptide, UniProt Q9GZZ8 124-138, looked up)
peptide: AQKLLKKSSLLKPWA
B10: N-104:L114S (peptide, UniProt Q9GZZ8 124-138, looked up)
peptide: AQKLLKKFSSLKPWA
B11: N-104:K116S (peptide, UniProt Q9GZZ8 124-138, looked up)
peptide: AQKLLKKFSLLSPWA
B12: N-104:L109S (peptide, UniProt Q9GZZ8 124-138, looked up)
peptide: AQKLSKKFSLLKPWA
B13: N-104:K110S (peptide, UniProt Q9GZZ8 124-138, looked up)
peptide: AQKLLSKFSLLKPWA
B14: N-104:K111S (peptide, UniProt Q9GZZ8 124-138, looked up)
peptide: AQKLLKSFSLLKPWA

target: T1, recombinant PotH (E. coli) with …; experiment: pull-down

binding result	Binder
binds	B1

Target: B1
Experiment: pull-down

binding result	Binder
binds	B2

target: thrombin (F2) C-terminal peptide GKY20 (human); experiment: far-Western, overlay or dot blot

binding result	Binder
binds	B3

target: thrombin (F2) C-terminal peptide GKY20 (human); experiment: far-Western, overlay or dot blot; remark: another data set of the same source

binding result	Binder
binds	B4
binds	B5
binds	B6
binds	B7
binds	B8
binds	B9
binds	B10
binds	B11
binds	B12
binds	B13
binds	B14
